Our source for the reduction in the bond values is patent publication US20090175789A1.

This assay deals with human LDL (Low Density Lipoprotein) receptor (human) (UniProt P01130). In words: competition by flow cytometry on A549 cells: unlabelled LDLs (varied, 16-fold excess) reduce the binding of 12G4 (30 µg/mL) to LDL-R. For orientation: Flow cytometry measures light scatter and fluorescence of single cells or particles in a stream.
Chain of human LDL (Low Density Lipoprotein) receptor (human) (P01130 22-860): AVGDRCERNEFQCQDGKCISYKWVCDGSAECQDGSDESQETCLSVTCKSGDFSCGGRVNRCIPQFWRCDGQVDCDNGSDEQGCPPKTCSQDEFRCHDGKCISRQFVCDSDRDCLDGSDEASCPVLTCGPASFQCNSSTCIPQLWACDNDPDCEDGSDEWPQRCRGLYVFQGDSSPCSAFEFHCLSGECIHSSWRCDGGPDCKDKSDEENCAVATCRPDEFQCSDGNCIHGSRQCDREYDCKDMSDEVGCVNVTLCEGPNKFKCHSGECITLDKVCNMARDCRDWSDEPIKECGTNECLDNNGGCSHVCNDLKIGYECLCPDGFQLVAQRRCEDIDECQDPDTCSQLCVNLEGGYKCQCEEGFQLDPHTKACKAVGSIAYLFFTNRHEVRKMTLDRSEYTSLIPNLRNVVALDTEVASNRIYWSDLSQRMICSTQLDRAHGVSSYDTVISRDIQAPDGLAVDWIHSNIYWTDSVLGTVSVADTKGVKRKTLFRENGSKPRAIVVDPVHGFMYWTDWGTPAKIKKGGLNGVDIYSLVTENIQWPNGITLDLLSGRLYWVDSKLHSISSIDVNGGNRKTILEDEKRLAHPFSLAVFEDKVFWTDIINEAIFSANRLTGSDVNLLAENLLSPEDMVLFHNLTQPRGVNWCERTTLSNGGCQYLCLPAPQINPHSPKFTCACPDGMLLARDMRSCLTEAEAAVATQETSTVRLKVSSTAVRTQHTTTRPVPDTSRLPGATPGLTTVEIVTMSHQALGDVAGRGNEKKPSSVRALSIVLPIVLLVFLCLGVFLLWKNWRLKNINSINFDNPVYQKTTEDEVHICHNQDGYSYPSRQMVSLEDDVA

For the substance “LDLs (Low Density Lipoproteins) (from UniProt P04114 28-4563) (ligand)”, the reduction in the bond turned out to be 60%.
